Test results from patent US20210403546A1 (LUDWIG INSTITUTE FOR CANCER RESEARCH, published 2021).

Target: T1, human recombinant TGF-b1 (human, UniProt P01137 279-390)
T1 construct: also called TGF-β1; hTGF-β1
Experiment: SPR (Biacore T200), 10 nM Fab over amine-coupled TGFb1 (492 RUs)
Procedure: FIG. 27 provides Biacore analysis of the new mutant variant antibodies and compares the new mutants versus parent variant 13A1-2F and versus mu13A1. Selected variants have different monovalent (huIgG1 stabilized Fab format). Biacore binding kinetics, range from lower to higher than the parental mouse 13A1 (mu13A1, hybrid with mouse VK/VH and huCK/huCH1). The data presented is ka, kd and apparent KD. TGFb1 (chip): 492 Rus, Fabs: 10 nM, Flow rate: 30 ul/min, Contact time: 510s, Diss. Time: 600s. Quality: Chi(2)<=1% Rmax and U score <=5. Data is presented for mutant variant antibodies 13A1_AF, 13A1_AG, 13A1_AH, 13A1_BF, 13A1_BG, 13A1_BH, 13A1_CF, 13A1_CG, 13A1_CH, 13A1_DF, 13A1_DG, 13A1_DH, 13A1_EF, 13A1_EG and 13A1_EH.
SPR binding analysis of Fabs: Experiments were performed using the Biacore T200 equipped with the Series S sensor chip CMS (GE Healthcare, cat. #BR-1005-30). The instrument temperature was set at 25° C. for all steps in the analysis while the compartment temperature was set at 10° C. All the assays were performed using the running buffer HBS-EP+ 1×. Recombinant TGF-β1 (Biocat, cat. #TG1-H4212-50 ug-AC) was immobilized with the standard amine-coupling chemistry using a solution of the ligand at 1 ug/mL in acetate, pH 4.5. Recombinant TGF-β1 was injected for several minutes to achieve a target density of 492 RUs. For TGF-β1 kinetic analysis Fabs were diluted in running buffer to 10 nM. One buffer blank was always injected before the injection of the antibody sample. The antibodies were then injected for 8.5 minutes (510 s) at 30 uL/min with 600 seconds of dissociation time. Regeneration was performed with 60 seconds of injection at 30 uL/min of 10 mM glycine 1.5. The Biacore binding kinetics range from lower to higher than the parental mouse 13A1 (mu13A1, hybrid with mouse VK/VH and huCK/huCH1.

T1 sequence (P01137 279-390 limits assumed): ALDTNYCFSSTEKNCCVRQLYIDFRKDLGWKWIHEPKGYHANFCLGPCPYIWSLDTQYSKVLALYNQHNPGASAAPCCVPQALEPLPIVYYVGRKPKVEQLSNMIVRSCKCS

| binding result | Binder |
| --- | --- |
| binds | 13A1_DH Fab (LCR13A1_VK_GLv1_08 + LCR13A1_VH_GLv1_06) (Fab, V domains shown, Human stabilized IgG1 Fab, 6xHis on CH1) VH: QVQLVQSGSVLAKPGASVKVSCKASGYTFTNYWTHWVRQAPGQGLEWIGTIYPGNSDTNYNQKFKDRAKLTAVTSTSTVYMELSSLRSEDTALYYCTREDSRSLNFNGWDYFDHWGQGTLVTVSS VL: DIVMTQSPDSLAVSLGQRASISCRASESVDNYGISFLNWFQQKPGQPPKLLIYAASNQGSGVPSRFSGSGSGTDFTLNIHPLEAEDAATYYCQQSKEVPRTFGGGTKVEIK |
| binds | 13A1_AH Fab (LCR13A1_VK_GLv3_02 + LCR13A1_VH_GLv1_06) (Fab, V domains shown, Human stabilized IgG1 Fab, 6xHis on CH1) VH: QVQLVQSGSVLAKPGASVKVSCKASGYTFTNYWTHWVRQAPGQGLEWIGTIYPGNSDTNYNQKFKDRAKLTAVTSTSTVYMELSSLRSEDTALYYCTREDSRSLNFNGWDYFDHWGQGTLVTVSS VL: DIVMTQSPDSLAVSLGERATINCKSSESVDNYGISFLNWYQQKPGKAPKLLIYAASNQGSGVPDRFSGSGSGTDFTLTISSLQAEDAAVYFCQQSKEVPRTFGGGTKLEIK |
| binds | 13A1_AG Fab (LCR13A1_VK_GLv3_02 + LCR13A1_VH_GLv1_05) (Fab, V domains shown, Human stabilized IgG1 Fab, 6xHis on CH1) VH: QVQLVQSGSVLAKPGASVKVSCKASGYTFTNYWTHWVRQAPGQGLEWIGTIYPGNSDTNYNQKFKDRAKLTAVTSTSTVYMELSSLRSEDTALYYCTREDSRSLYYNGWDYFDHWGQGTLVTVSS VL: DIVMTQSPDSLAVSLGERATINCKSSESVDNYGISFLNWYQQKPGKAPKLLIYAASNQGSGVPDRFSGSGSGTDFTLTISSLQAEDAAVYFCQQSKEVPRTFGGGTKLEIK |
| binds | 13A1_EH Fab (LCR13A1_VK_GLv1_09 + LCR13A1_VH_GLv1_06) (Fab, V domains shown, Human stabilized IgG1 Fab, 6xHis on CH1) VH: QVQLVQSGSVLAKPGASVKVSCKASGYTFTNYWTHWVRQAPGQGLEWIGTIYPGNSDTNYNQKFKDRAKLTAVTSTSTVYMELSSLRSEDTALYYCTREDSRSLNFNGWDYFDHWGQGTLVTVSS VL: DIVMTQSPDSLAVSLGQRASISCRASESVDNYGISLLNWYQQKPGQPPKLLIYAASNQGSGVPSRFSGSGSGTDFTLNIHPLEAEDAATYYCQQSKEVPRTFGGGTKVEIK |
| binds | 13A1_EF Fab (LCR13A1_VK_GLv1_09 + LCR13A1_VH_GLv1_04) (Fab, V domains shown, Human stabilized IgG1 Fab, 6xHis on CH1) VH: QVQLVQSGSVLAKPGASVKVSCKASGYTFTNYWMHWVRQAPGQGLEWIGTIYPGNSDTNYNQKFKDRAKLTAVTSTSTVYMELSSLRSEDTAVYYCTREDSRSLNFNGWDYFDYWGQGTLVTVSS VL: DIVMTQSPDSLAVSLGQRASISCRASESVDNYGISLLNWYQQKPGQPPKLLIYAASNQGSGVPSRFSGSGSGTDFTLNIHPLEAEDAATYYCQQSKEVPRTFGGGTKVEIK |
| binds | 13A1_DF Fab (LCR13A1_VK_GLv1_08 + LCR13A1_VH_GLv1_04) (Fab, V domains shown, Human stabilized IgG1 Fab, 6xHis on CH1) VH: QVQLVQSGSVLAKPGASVKVSCKASGYTFTNYWMHWVRQAPGQGLEWIGTIYPGNSDTNYNQKFKDRAKLTAVTSTSTVYMELSSLRSEDTAVYYCTREDSRSLNFNGWDYFDYWGQGTLVTVSS VL: DIVMTQSPDSLAVSLGQRASISCRASESVDNYGISFLNWFQQKPGQPPKLLIYAASNQGSGVPSRFSGSGSGTDFTLNIHPLEAEDAATYYCQQSKEVPRTFGGGTKVEIK |
| binds | 13A1_BF Fab (LCR13A1_VK_GLv1_06 + LCR13A1_VH_GLv1_04) (Fab, V domains shown, Human stabilized IgG1 Fab, 6xHis on CH1) VH: QVQLVQSGSVLAKPGASVKVSCKASGYTFTNYWMHWVRQAPGQGLEWIGTIYPGNSDTNYNQKFKDRAKLTAVTSTSTVYMELSSLRSEDTAVYYCTREDSRSLNFNGWDYFDYWGQGTLVTVSS VL: DIVMTQSPDSLAVSLGERATISCRASESVDNYGISFLNWYQQKPGQPPKLLIYAASNQGSGVPSRFSGSGSGTDFTLNIHPLEAEDAATYYCQQSKEVPRTFGGGTKVEIK |
| binds | 13A1_CF Fab (LCR13A1_VK_GLv1_07 + LCR13A1_VH_GLv1_04) (Fab, V domains shown, Human stabilized IgG1 Fab, 6xHis on CH1) VH: QVQLVQSGSVLAKPGASVKVSCKASGYTFTNYWMHWVRQAPGQGLEWIGTIYPGNSDTNYNQKFKDRAKLTAVTSTSTVYMELSSLRSEDTAVYYCTREDSRSLNFNGWDYFDYWGQGTLVTVSS VL: DIVMTQSPDSLAVSLGERATISCRASESVDNYGISLLNWFQQKPGQPPKLLIYAASNQGSGVPSRFSGSGSGTDFTLNIHPLEAEDAATYYCQQSKEVPRTFGGGTKVEIK |
| binds | 13A1_BG Fab (LCR13A1_VK_GLv1_06 + LCR13A1_VH_GLv1_05) (Fab, V domains shown, Human stabilized IgG1 Fab, 6xHis on CH1) VH: QVQLVQSGSVLAKPGASVKVSCKASGYTFTNYWTHWVRQAPGQGLEWIGTIYPGNSDTNYNQKFKDRAKLTAVTSTSTVYMELSSLRSEDTALYYCTREDSRSLYYNGWDYFDHWGQGTLVTVSS VL: DIVMTQSPDSLAVSLGERATISCRASESVDNYGISFLNWYQQKPGQPPKLLIYAASNQGSGVPSRFSGSGSGTDFTLNIHPLEAEDAATYYCQQSKEVPRTFGGGTKVEIK |
| binds | 13A1_BH Fab (LCR13A1_VK_GLv1_06 + LCR13A1_VH_GLv1_06) (Fab, V domains shown, Human stabilized IgG1 Fab, 6xHis on CH1) VH: QVQLVQSGSVLAKPGASVKVSCKASGYTFTNYWTHWVRQAPGQGLEWIGTIYPGNSDTNYNQKFKDRAKLTAVTSTSTVYMELSSLRSEDTALYYCTREDSRSLNFNGWDYFDHWGQGTLVTVSS VL: DIVMTQSPDSLAVSLGERATISCRASESVDNYGISFLNWYQQKPGQPPKLLIYAASNQGSGVPSRFSGSGSGTDFTLNIHPLEAEDAATYYCQQSKEVPRTFGGGTKVEIK |
| binds | 13A1_AF Fab (LCR13A1_VK_GLv3_02 + LCR13A1_VH_GLv1_04) (Fab, V domains shown, Human stabilized IgG1 Fab: VH-CH1(IgG1)-6xHis and VK-CK, CK/CH1 with the stabilizing mutations of Chen et al 2016) VH: QVQLVQSGSVLAKPGASVKVSCKASGYTFTNYWMHWVRQAPGQGLEWIGTIYPGNSDTNYNQKFKDRAKLTAVTSTSTVYMELSSLRSEDTAVYYCTREDSRSLNFNGWDYFDYWGQGTLVTVSS VL: DIVMTQSPDSLAVSLGERATINCKSSESVDNYGISFLNWYQQKPGKAPKLLIYAASNQGSGVPDRFSGSGSGTDFTLTISSLQAEDAAVYFCQQSKEVPRTFGGGTKLEIK |
| binds | 13A1_DG Fab (LCR13A1_VK_GLv1_08 + LCR13A1_VH_GLv1_05) (Fab, V domains shown, Human stabilized IgG1 Fab, 6xHis on CH1) VH: QVQLVQSGSVLAKPGASVKVSCKASGYTFTNYWTHWVRQAPGQGLEWIGTIYPGNSDTNYNQKFKDRAKLTAVTSTSTVYMELSSLRSEDTALYYCTREDSRSLYYNGWDYFDHWGQGTLVTVSS VL: DIVMTQSPDSLAVSLGQRASISCRASESVDNYGISFLNWFQQKPGQPPKLLIYAASNQGSGVPSRFSGSGSGTDFTLNIHPLEAEDAATYYCQQSKEVPRTFGGGTKVEIK |
| binds | 13A1_EG Fab (LCR13A1_VK_GLv1_09 + LCR13A1_VH_GLv1_05) (Fab, V domains shown, Human stabilized IgG1 Fab, 6xHis on CH1) VH: QVQLVQSGSVLAKPGASVKVSCKASGYTFTNYWTHWVRQAPGQGLEWIGTIYPGNSDTNYNQKFKDRAKLTAVTSTSTVYMELSSLRSEDTALYYCTREDSRSLYYNGWDYFDHWGQGTLVTVSS VL: DIVMTQSPDSLAVSLGQRASISCRASESVDNYGISLLNWYQQKPGQPPKLLIYAASNQGSGVPSRFSGSGSGTDFTLNIHPLEAEDAATYYCQQSKEVPRTFGGGTKVEIK |
| binds | 13A1_CG Fab (LCR13A1_VK_GLv1_07 + LCR13A1_VH_GLv1_05) (Fab, V domains shown, Human stabilized IgG1 Fab, 6xHis on CH1) VH: QVQLVQSGSVLAKPGASVKVSCKASGYTFTNYWTHWVRQAPGQGLEWIGTIYPGNSDTNYNQKFKDRAKLTAVTSTSTVYMELSSLRSEDTALYYCTREDSRSLYYNGWDYFDHWGQGTLVTVSS VL: DIVMTQSPDSLAVSLGERATISCRASESVDNYGISLLNWFQQKPGQPPKLLIYAASNQGSGVPSRFSGSGSGTDFTLNIHPLEAEDAATYYCQQSKEVPRTFGGGTKVEIK |
| binds | 13A1_CH Fab (LCR13A1_VK_GLv1_07 + LCR13A1_VH_GLv1_06) (Fab, V domains shown, Human stabilized IgG1 Fab, 6xHis on CH1) VH: QVQLVQSGSVLAKPGASVKVSCKASGYTFTNYWTHWVRQAPGQGLEWIGTIYPGNSDTNYNQKFKDRAKLTAVTSTSTVYMELSSLRSEDTALYYCTREDSRSLNFNGWDYFDHWGQGTLVTVSS VL: DIVMTQSPDSLAVSLGERATISCRASESVDNYGISLLNWFQQKPGQPPKLLIYAASNQGSGVPSRFSGSGSGTDFTLNIHPLEAEDAATYYCQQSKEVPRTFGGGTKVEIK |
